Experimental data from US20180009871A1 (INTARCIA THERAPEUTICS, published 2018).
Where no end group is shown, it is not given here. [ ]: non-standard residue; d: D form. Aib = CC(C)(N)C(=O)O

What was measured:
[1] = target: human glucagon receptor (GCGR) (human, UniProt P47871 26-477); assay: cell-based or functional assay
[2] = target: human GLP-1 receptor (GLP-1R) (human, UniProt P43220 24-463); assay: cell-based or functional assay
Chain of human GLP-1 receptor (GLP-1R) (P43220 24-463): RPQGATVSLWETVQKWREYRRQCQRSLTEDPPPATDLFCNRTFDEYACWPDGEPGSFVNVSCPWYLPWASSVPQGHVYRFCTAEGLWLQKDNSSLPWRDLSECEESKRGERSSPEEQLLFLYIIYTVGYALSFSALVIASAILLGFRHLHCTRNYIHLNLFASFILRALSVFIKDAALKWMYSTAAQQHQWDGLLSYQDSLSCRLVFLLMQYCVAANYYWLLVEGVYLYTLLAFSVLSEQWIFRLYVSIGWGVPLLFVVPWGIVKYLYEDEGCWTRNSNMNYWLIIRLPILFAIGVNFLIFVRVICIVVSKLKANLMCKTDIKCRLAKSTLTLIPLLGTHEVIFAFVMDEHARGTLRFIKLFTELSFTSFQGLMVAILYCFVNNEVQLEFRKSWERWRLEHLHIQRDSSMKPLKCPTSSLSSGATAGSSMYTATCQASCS

| Binder | hGCGR pEC50 (cAMP) [1] | hGLP1 pEC50 (cAMP) [2] |
| --- | --- | --- |
| YSHGTFTSDYSKYLDSARAQEFVKWLEDEPSSGAPPPS-NH2 [Compound A5] | 11.8 pEC50 | 5.8 pEC50 |
| YSHGTFTSDYSKYLD[Aib]KTAQEFV[Aib]WLEDEPSSGAPPPS-OH (N-terminus assumed; SMILES CC(C)C[C@H](NC(=O)[C@H](Cc1ccc(O)cc1)NC(=O)[C@H](CCCCN)NC(=O)[C@H](CO)NC(=O)[C@H](Cc1ccc(O)cc1)NC(=O)[C@H](CC(=O)O)NC(=O)[C@H](CO)NC(=O)[C@@H](NC(=O)[C@H](Cc1ccccc1)NC(=O)[C@@H](NC(=O)CNC(=O)[C@H](Cc1c[nH]cn1)NC(=O)[C@H](CO)NC(=O)[C@@H](N)Cc1ccc(O)cc1)[C@@H](C)O)[C@@H](C)O)C(=O)N[C@@H](CC(=O)O)C(=O)NC(C)(C)C(=O)N[C@@H](CCCCN)C(=O)N[C@H](C(=O)N[C@@H](C)C(=O)N[C@@H](CCC(N)=O)C(=O)N[C@@H](CCC(=O)O)C(=O)N[C@@H](Cc1ccccc1)C(=O)N[C@H](C(=O)NC(C)(C)C(=O)N[C@@H](Cc1c[nH]c2ccccc12)C(=O)N[C@@H](CC(C)C)C(=O)N[C@@H](CCC(=O)O)C(=O)N[C@@H](CC(=O)O)C(=O)N[C@@H](CCC(=O)O)C(=O)N1CCC[C@H]1C(=O)N[C@@H](CO)C(=O)N[C@@H](CO)C(=O)NCC(=O)N[C@@H](C)C(=O)N1CCC[C@H]1C(=O)N1CCC[C@H]1C(=O)N1CCC[C@H]1C(=O)N[C@@H](CO)C(=O)O)C(C)C)[C@@H](C)O) [Compound A77] | 11.5 pEC50 | < 9 pEC50 |
| YSHGTFTSDYSKYLD[Aib]KLAQEFV[Aib]WLEDEPSSGAPPPS-OH (N-terminus assumed; SMILES CC(C)C[C@H](NC(=O)[C@H](CCCCN)NC(=O)C(C)(C)NC(=O)[C@H](CC(=O)O)NC(=O)[C@H](CC(C)C)NC(=O)[C@H](Cc1ccc(O)cc1)NC(=O)[C@H](CCCCN)NC(=O)[C@H](CO)NC(=O)[C@H](Cc1ccc(O)cc1)NC(=O)[C@H](CC(=O)O)NC(=O)[C@H](CO)NC(=O)[C@@H](NC(=O)[C@H](Cc1ccccc1)NC(=O)[C@@H](NC(=O)CNC(=O)[C@H](Cc1c[nH]cn1)NC(=O)[C@H](CO)NC(=O)[C@@H](N)Cc1ccc(O)cc1)[C@@H](C)O)[C@@H](C)O)C(=O)N[C@@H](C)C(=O)N[C@@H](CCC(N)=O)C(=O)N[C@@H](CCC(=O)O)C(=O)N[C@@H](Cc1ccccc1)C(=O)N[C@H](C(=O)NC(C)(C)C(=O)N[C@@H](Cc1c[nH]c2ccccc12)C(=O)N[C@@H](CC(C)C)C(=O)N[C@@H](CCC(=O)O)C(=O)N[C@@H](CC(=O)O)C(=O)N[C@@H](CCC(=O)O)C(=O)N1CCC[C@H]1C(=O)N[C@@H](CO)C(=O)N[C@@H](CO)C(=O)NCC(=O)N[C@@H](C)C(=O)N1CCC[C@H]1C(=O)N1CCC[C@H]1C(=O)N1CCC[C@H]1C(=O)N[C@@H](CO)C(=O)O)C(C)C) [Compound A78] | 10.8 pEC50 | < 9 pEC50 |
| YSHGTFTSDYSKYLD[Aib]KRAQEFVIWLEDEPSSGAPPPS-OH (N-terminus assumed; SMILES CC[C@H](C)[C@H](NC(=O)[C@@H](NC(=O)[C@H](Cc1ccccc1)NC(=O)[C@H](CCC(=O)O)NC(=O)[C@H](CCC(N)=O)NC(=O)[C@H](C)NC(=O)[C@H](CCCNC(=N)N)NC(=O)[C@H](CCCCN)NC(=O)C(C)(C)NC(=O)[C@H](CC(=O)O)NC(=O)[C@H](CC(C)C)NC(=O)[C@H](Cc1ccc(O)cc1)NC(=O)[C@H](CCCCN)NC(=O)[C@H](CO)NC(=O)[C@H](Cc1ccc(O)cc1)NC(=O)[C@H](CC(=O)O)NC(=O)[C@H](CO)NC(=O)[C@@H](NC(=O)[C@H](Cc1ccccc1)NC(=O)[C@@H](NC(=O)CNC(=O)[C@H](Cc1c[nH]cn1)NC(=O)[C@H](CO)NC(=O)[C@@H](N)Cc1ccc(O)cc1)[C@@H](C)O)[C@@H](C)O)C(C)C)C(=O)N[C@@H](Cc1c[nH]c2ccccc12)C(=O)N[C@@H](CC(C)C)C(=O)N[C@@H](CCC(=O)O)C(=O)N[C@@H](CC(=O)O)C(=O)N[C@@H](CCC(=O)O)C(=O)N1CCC[C@H]1C(=O)N[C@@H](CO)C(=O)N[C@@H](CO)C(=O)NCC(=O)N[C@@H](C)C(=O)N1CCC[C@H]1C(=O)N1CCC[C@H]1C(=O)N1CCC[C@H]1C(=O)N[C@@H](CO)C(=O)O) [Compound A4] | 11.8 pEC50 | < 5 pEC50 |
| YSHGTFTSDYSKYLD[Aib]KSAQEFV[Aib]WLEDEPSSGAPPPS-OH (N-terminus assumed; SMILES CC(C)C[C@H](NC(=O)[C@H](Cc1ccc(O)cc1)NC(=O)[C@H](CCCCN)NC(=O)[C@H](CO)NC(=O)[C@H](Cc1ccc(O)cc1)NC(=O)[C@H](CC(=O)O)NC(=O)[C@H](CO)NC(=O)[C@@H](NC(=O)[C@H](Cc1ccccc1)NC(=O)[C@@H](NC(=O)CNC(=O)[C@H](Cc1c[nH]cn1)NC(=O)[C@H](CO)NC(=O)[C@@H](N)Cc1ccc(O)cc1)[C@@H](C)O)[C@@H](C)O)C(=O)N[C@@H](CC(=O)O)C(=O)NC(C)(C)C(=O)N[C@@H](CCCCN)C(=O)N[C@@H](CO)C(=O)N[C@@H](C)C(=O)N[C@@H](CCC(N)=O)C(=O)N[C@@H](CCC(=O)O)C(=O)N[C@@H](Cc1ccccc1)C(=O)N[C@H](C(=O)NC(C)(C)C(=O)N[C@@H](Cc1c[nH]c2ccccc12)C(=O)N[C@@H](CC(C)C)C(=O)N[C@@H](CCC(=O)O)C(=O)N[C@@H](CC(=O)O)C(=O)N[C@@H](CCC(=O)O)C(=O)N1CCC[C@H]1C(=O)N[C@@H](CO)C(=O)N[C@@H](CO)C(=O)NCC(=O)N[C@@H](C)C(=O)N1CCC[C@H]1C(=O)N1CCC[C@H]1C(=O)N1CCC[C@H]1C(=O)N[C@@H](CO)C(=O)O)C(C)C) [Compound A2] | 11.7 pEC50 | 5.4 pEC50 |
| YSQGTFTSDYSKYLDAARAQEFVKWLEDEPKSKSPPPS-NH2 [Compound A3] | 12.1 pEC50 | 6.7 pEC50 |
| WSQGTFTSDYSKYLD[Aib]KRAQEFV[Aib]WLEDEPSSGAPPPS-OH (N-terminus assumed; SMILES CC(C)C[C@H](NC(=O)[C@H](Cc1ccc(O)cc1)NC(=O)[C@H](CCCCN)NC(=O)[C@H](CO)NC(=O)[C@H](Cc1ccc(O)cc1)NC(=O)[C@H](CC(=O)O)NC(=O)[C@H](CO)NC(=O)[C@@H](NC(=O)[C@H](Cc1ccccc1)NC(=O)[C@@H](NC(=O)CNC(=O)[C@H](CCC(N)=O)NC(=O)[C@H](CO)NC(=O)[C@@H](N)Cc1c[nH]c2ccccc12)[C@@H](C)O)[C@@H](C)O)C(=O)N[C@@H](CC(=O)O)C(=O)NC(C)(C)C(=O)N[C@@H](CCCCN)C(=O)N[C@@H](CCCNC(=N)N)C(=O)N[C@@H](C)C(=O)N[C@@H](CCC(N)=O)C(=O)N[C@@H](CCC(=O)O)C(=O)N[C@@H](Cc1ccccc1)C(=O)N[C@H](C(=O)NC(C)(C)C(=O)N[C@@H](Cc1c[nH]c2ccccc12)C(=O)N[C@@H](CC(C)C)C(=O)N[C@@H](CCC(=O)O)C(=O)N[C@@H](CC(=O)O)C(=O)N[C@@H](CCC(=O)O)C(=O)N1CCC[C@H]1C(=O)N[C@@H](CO)C(=O)N[C@@H](CO)C(=O)NCC(=O)N[C@@H](C)C(=O)N1CCC[C@H]1C(=O)N1CCC[C@H]1C(=O)N1CCC[C@H]1C(=O)N[C@@H](CO)C(=O)O)C(C)C) [Compound A6] | 11.7 pEC50 | 5.3 pEC50 |
| YSHGTFTSDYSKYLD[Aib]KYAQEFV[Aib]WLEDEPSSGAPPPS-OH (N-terminus assumed; SMILES CC(C)C[C@H](NC(=O)[C@H](Cc1ccc(O)cc1)NC(=O)[C@H](CCCCN)NC(=O)[C@H](CO)NC(=O)[C@H](Cc1ccc(O)cc1)NC(=O)[C@H](CC(=O)O)NC(=O)[C@H](CO)NC(=O)[C@@H](NC(=O)[C@H](Cc1ccccc1)NC(=O)[C@@H](NC(=O)CNC(=O)[C@H](Cc1c[nH]cn1)NC(=O)[C@H](CO)NC(=O)[C@@H](N)Cc1ccc(O)cc1)[C@@H](C)O)[C@@H](C)O)C(=O)N[C@@H](CC(=O)O)C(=O)NC(C)(C)C(=O)N[C@@H](CCCCN)C(=O)N[C@@H](Cc1ccc(O)cc1)C(=O)N[C@@H](C)C(=O)N[C@@H](CCC(N)=O)C(=O)N[C@@H](CCC(=O)O)C(=O)N[C@@H](Cc1ccccc1)C(=O)N[C@H](C(=O)NC(C)(C)C(=O)N[C@@H](Cc1c[nH]c2ccccc12)C(=O)N[C@@H](CC(C)C)C(=O)N[C@@H](CCC(=O)O)C(=O)N[C@@H](CC(=O)O)C(=O)N[C@@H](CCC(=O)O)C(=O)N1CCC[C@H]1C(=O)N[C@@H](CO)C(=O)N[C@@H](CO)C(=O)NCC(=O)N[C@@H](C)C(=O)N1CCC[C@H]1C(=O)N1CCC[C@H]1C(=O)N1CCC[C@H]1C(=O)N[C@@H](CO)C(=O)O)C(C)C) [Compound A1] | 12.3 pEC50 | 5.2 pEC50 |
| YSHGTFTSDYSKYLD[Aib]KEAQEFV[Aib]WLEDEPSSGAPPPS-OH (N-terminus assumed; SMILES CC(C)C[C@H](NC(=O)[C@H](Cc1ccc(O)cc1)NC(=O)[C@H](CCCCN)NC(=O)[C@H](CO)NC(=O)[C@H](Cc1ccc(O)cc1)NC(=O)[C@H](CC(=O)O)NC(=O)[C@H](CO)NC(=O)[C@@H](NC(=O)[C@H](Cc1ccccc1)NC(=O)[C@@H](NC(=O)CNC(=O)[C@H](Cc1c[nH]cn1)NC(=O)[C@H](CO)NC(=O)[C@@H](N)Cc1ccc(O)cc1)[C@@H](C)O)[C@@H](C)O)C(=O)N[C@@H](CC(=O)O)C(=O)NC(C)(C)C(=O)N[C@@H](CCCCN)C(=O)N[C@@H](CCC(=O)O)C(=O)N[C@@H](C)C(=O)N[C@@H](CCC(N)=O)C(=O)N[C@@H](CCC(=O)O)C(=O)N[C@@H](Cc1ccccc1)C(=O)N[C@H](C(=O)NC(C)(C)C(=O)N[C@@H](Cc1c[nH]c2ccccc12)C(=O)N[C@@H](CC(C)C)C(=O)N[C@@H](CCC(=O)O)C(=O)N[C@@H](CC(=O)O)C(=O)N[C@@H](CCC(=O)O)C(=O)N1CCC[C@H]1C(=O)N[C@@H](CO)C(=O)N[C@@H](CO)C(=O)NCC(=O)N[C@@H](C)C(=O)N1CCC[C@H]1C(=O)N1CCC[C@H]1C(=O)N1CCC[C@H]1C(=O)N[C@@H](CO)C(=O)O)C(C)C) [Compound A79] | 10.2 pEC50 | < 9 pEC50 |
